The values below are quoted from earlier work in PMC4666935.

In data set [1] the target is uPA-PAI-1 complex (Homo sapiens) (UniProt P00749).
A further data set has as its target PAI-1 (Homo sapiens) (UniProt P05121).

Sequence of vasoinhibin (P01236 29-227): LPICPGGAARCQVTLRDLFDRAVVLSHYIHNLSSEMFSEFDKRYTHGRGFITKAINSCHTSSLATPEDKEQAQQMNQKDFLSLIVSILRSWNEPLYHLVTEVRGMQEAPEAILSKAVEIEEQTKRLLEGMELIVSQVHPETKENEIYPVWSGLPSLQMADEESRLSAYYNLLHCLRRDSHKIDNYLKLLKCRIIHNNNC
Sequence of PAI-1 (Homo sapiens) (P05121 24-402): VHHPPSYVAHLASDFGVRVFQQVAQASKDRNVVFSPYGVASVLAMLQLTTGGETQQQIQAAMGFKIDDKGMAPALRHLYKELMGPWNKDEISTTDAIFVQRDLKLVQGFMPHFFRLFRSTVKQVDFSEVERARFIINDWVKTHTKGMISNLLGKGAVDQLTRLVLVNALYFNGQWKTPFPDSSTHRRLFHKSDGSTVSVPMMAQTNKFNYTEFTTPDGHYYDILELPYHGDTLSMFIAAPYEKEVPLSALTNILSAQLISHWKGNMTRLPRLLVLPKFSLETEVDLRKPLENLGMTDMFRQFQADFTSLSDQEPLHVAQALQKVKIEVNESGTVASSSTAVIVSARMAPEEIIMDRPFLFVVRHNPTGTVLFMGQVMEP
Sequence of uPA-PAI-1 complex (Homo sapiens) (P05121 24-402, chain 2 of 2, other chains not shown): as the sequence (P05121 24-402) above

By Kd is commonly meant the concentration at which binding is half-saturated. As for vasoinhibin (from UniProt P01236), the Kd was 500 nM in data set [1] and 1000 nM with PAI-1 (Homo sapiens).
